Where a chain is given by its changes, count along the chain named. Values belong to the binder of their own block, whether it stands above or below them.
Target: T1, preproinsulin 73-90 peptide complexed with HLA-DRB1*04:01 (human, UniProt P01903 26-254; P01911 30-266)
T1 MHC II alpha: not shown
T1 MHC II beta: not shown
T1 peptide: GAGSLQPLALEGSLQKRG
Test: cell-based or functional assay

EC50 (nM) of CD69 upregulation, conventional CD4+ T cells + BLS-DRB1*04:01 cells, peptide titrated: 4.42 nM
B1: TCR-D (TCR)
TCR alpha: NSVTQMEGPVTLSEEAFLTINCTYTATGYPSLFWYVQYPGEGLQLLLKATKADDKGSNKGFEATYRKETTSFHLEKGSVQVSDSAVYFCALSEKTSYDKVIFGPGTSLSVIPNIQNPDPAVYQLRDSKSSDKSVCLFTDFDSQTNVSQSKDSDVYITDKTVLDMRSMDFKSNSAVAWSNKSDFACANAFNNSIIPEDTFFPSPESSCDVKLVEKSFETDTNLNFQNLSVIGFRILLLKVAGFNLLMTLRLWSS
TCR beta: NAGVTQTPKFRILKIGQSMTLQCTQDMNHNYMYWYRQDPGMGLKLIYYSVGAGITDKGEVPNGYNVSRSTTEDFPLRLELAAPSQTSVYFCASSYGPGGSEAFFGQGTRLTVVEDLNKVFPPEVAVFEPSEAEISHTQKATLVCLATGFFPDHVELSWWVNGKEVHSGVSTDPQPLKEQPALNDSRYCLSSRLRVSATFWQNPRNHFRCQVQFYGLSENDEWTQDRAKPVTQIVSAEAWGRADCGFTSVSYQQGVLSATILYEILLGKATLYAVLVSALVLMAMVKRKDF

EC50 (nM) of CD69 upregulation, conventional CD4+ T cells + BLS-DRB1*04:01 cells, peptide titrated: 3.47 nM
B2: TCR-E DS (TCR)
TCR alpha: B1 TCR alpha with E93V, T160C
TCR beta: NAGVTQTPKFQVLKTGQSMTLQCAQDMNHNSMYWYRQDPGMGLRLIYYSASEGTTDKGEVPNGYNVSRLNKREFSLRLESAAPSQTSVYFCASSRDRGPETQYFGPGTRLLVLEDLKNVFPPEVAVFEPSEAEISHTQKATLVCLATGFYPDHVELSWWVNGKEVHSGVCTDPQPLKEQPALNDSRYCLSSRLRVSATFWQNPRNHFRCQVQFYGLSENDEWTQDRAKPVTQIVSAEAWGRADCGFTSESYQQGVLSATILYEILLGKATLYAVLVSALVLMAMVKRKDSRG

EC50 (nM) of CD69 upregulation, conventional CD4+ T cells + BLS-DRB1*04:01 cells, peptide titrated: 7.78 nM
B3: TCR-E (TCR)
TCR alpha: B1 TCR alpha with E93V
TCR beta: B2 TCR beta with C170S

EC50 (nM) of CD69 upregulation, conventional CD4+ T cells + BLS-DRB1*04:01 cells, peptide titrated: 2.18 nM
B4: TCR-D DS (TCR)
TCR alpha: B1 TCR alpha with T160C
TCR beta: B1 TCR beta with S170C

EC50 (nM) of CD69 upregulation, conventional CD4+ T cells + BLS-DRB1*04:01 cells, peptide titrated: 0.93 nM
B5: TCR-H (TCR)
TCR alpha: EDQVTQSPEALRLQEGESSSLNCSYTVSGLRGLFWYRQDPGKGPEFLFTLYSAGEEKEKERLKATLTKKESFLHITAPKPEDSATYLCAVQLSDSNYKLTFGKGTLLTVNPNIQNPDPAVYQLRDSKSSDKSVCLFTDFDSQTNVSQSKDSDVYITDKTVLDMRSMDFKSNSAVAWSNKSDFACANAFNNSIIPEDTFFPSPESSCDVKLVEKSFETDTNLNFQNLSVIGFRILLLKVAGFNLLMTLRLWSS
TCR beta: NAGVTQTPKFQVLKTGQSMTLQCAQDMNHNSMYWYRQDPGMGLRLIYYSASEGTTDKGEVPNGYNVSRLNKREFSLRLESAAPSQTSVYFCASRGQVNEKLFFGSGTQLSVLEDLNKVFPPEVAVFEPSEAEISHTQKATLVCLATGFFPDHVELSWWVNGKEVHSGVSTDPQPLKEQPALNDSRYCLSSRLRVSATFWQNPRNHFRCQVQFYGLSENDEWTQDRAKPVTQIVSAEAWGRADCGFTSVSYQQGVLSATILYEILLGKATLYAVLVSALVLMAMVKRKDF

EC50 (nM) of CD69 upregulation, conventional CD4+ T cells + BLS-DRB1*04:01 cells, peptide titrated: 0.62 nM
B6: TCR-H DS (TCR)
TCR alpha: B5 TCR alpha with T159C
TCR beta: B5 TCR beta with S169C

EC50 (nM) of CD69 upregulation, conventional CD4+ T cells + BLS-DRB1*04:01 cells, peptide titrated: 14.9 nM
B7: TCR-I (TCR)
TCR alpha: IDAKTTQPTSMDCAEGRAANLPCNHSTISGNEYVYWYRQIHSQGPQYIIHGLKNNETNEMASLIITEDRKSSTLILPHATLRDTAVYYCIVRFQSGGYQKVTFGTGTKLQVIPNIQNPDPAVYQLRDSKSSDKSVCLFTDFDSQTNVSQSKDSDVYITDKTVLDMRSMDFKSNSAVAWSNKSDFACANAFNNSIIPEDTFFPSPESSCDVKLVEKSFETDTNLNFQNLSVIGFRILLLKVAGFNLLMTLRLWSS
TCR beta: DAGVIQSPRHEVTEMGQEVTLRCKPISGHNSLFWYRQTMMRGLELLIYFNNNVPIDDSGMPEDRFSAKMPNASFSTLKIQPSEPRDSAVYFCASSIQAGGRYNEQFFGPGTRLTVLEDLKNVFPPEVAVFEPSEAEISHTQKATLVCLATGFYPDHVELSWWVNGKEVHSGVSTDPQPLKEQPALNDSRYCLSSRLRVSATFWQNPRNHFRCQVQFYGLSENDEWTQDRAKPVTQIVSAEAWGRADCGFTSESYQQGVLSATILYEILLGKATLYAVLVSALVLMAMVKRKDSRG

EC50 (nM) of CD69 upregulation, conventional CD4+ T cells + BLS-DRB1*04:01 cells, peptide titrated: 8.03 nM
B8: TCR-I DS (TCR)
TCR alpha: B7 TCR alpha with T161C
TCR beta: B7 TCR beta with S173C

EC50 (nM) of CD69 upregulation, conventional CD4+ T cells + BLS-DRB1*04:01 cells, peptide titrated: 28.2 nM
B9: TCR-N (TCR, V domains shown)
V domain 1: GESVGLHLPTLSVQEGDNSIINCAYSNSASDYFIWYKQESGKGPQFIIDIRSNMDKRQGQRVTVLLNKTVKHLSLQIAATQPGDSAVYFCAEISKTSYDKVIFGPGTSLSVIP
V domain 2: NAGVTQTPKFRILKIGQSMTLQCAQDMNHNYMYWYRQDPGMGLKLIYYSVGAGITDKGEVPNGYNVSRSTTEDFPLRLELAAPSQTSVYFCASSYGPGGRNTIYFGEGSWLTVVE

EC50 (nM) of CD69 upregulation, conventional CD4+ T cells + BLS-DRB1*04:01 cells, peptide titrated: 1.5 nM
B10: TCR-F (TCR)
TCR alpha: EDQVTQSPEALRLQEGESSSLNCSYTVSGLRGLFWYRQDPGKGPEFLFTLYSAGEEKEKERLKATLTKKESFLHITAPKPEDSATYLCAVQATGYALNFGKGTSLLVTPHIQNPDPAVYQLRDSKSSDKSVCLFTDFDSQTNVSQSKDSDVYITDKTVLDMRSMDFKSNSAVAWSNKSDFACANAFNNSIIPEDTFFPSPESSCDVKLVEKSFETDTNLNFQNLSVIGFRILLLKVAGFNLLMTLRLWSS
TCR beta: GAGVSQSPSNKVTEKGKDVELRCDPISGHTALYWYRQSLGQGLEFLIYFQGNSAPDKSGLPSDRFSAERTGGSVSTLTIQRTQQEDSAVYLCASNLGGSRQPQHFGDGTRLSILEDLNKVFPPEVAVFEPSEAEISHTQKATLVCLATGFFPDHVELSWWVNGKEVHSGVSTDPQPLKEQPALNDSRYCLSSRLRVSATFWQNPRNHFRCQVQFYGLSENDEWTQDRAKPVTQIVSAEAWGRADCGFTSVSYQQGVLSATILYEILLGKATLYAVLVSALVLMAMVKRKDF

EC50 (nM) of CD69 upregulation, conventional CD4+ T cells + BLS-DRB1*04:01 cells, peptide titrated: 1.36 nM
B11: TCR-F DS (TCR)
TCR alpha: B10 TCR alpha with T157C
TCR beta: B10 TCR beta with S171C

EC50 (nM) of CD69 upregulation, conventional CD4+ T cells + BLS-DRB1*04:01 cells, peptide titrated: 47.7 nM
B12: TCR-K (TCR)
TCR alpha: RGNGKNQVEQSPQSLIILEGKNCTLQCNYTVSPFSNLRWYKQDTGRGPVSLTIMTFSENTKSNGRYTATLDADTKQSSLHITASQLSDSASYICVVSASSNTGKLIFGQGTTLQVKPDIQNPDPAVYQLRDSKSSDKSVCLFTDFDSQTNVSQSKDSDVYITDKTVLDMRSMDFKSNSAVAWSNKSDFACANAFNNSIIPEDTFFPSPESSCDVKLVEKSFETDTNLNFQNLSVIGFRILLLKVAGFNLLMTLRLWSS
TCR beta: DAGVIQSPRHEVTEMGQEVTLRCKPISGHNSLFWYRQTMMRGLELLIYFNNNVPIDDSGMPEDRFSAKMPNASFSTLKIQPSEPRDSAVYFCASSGQLVAYNEQFFGPGTRLTVLEDLKNVFPPEVAVFEPSEAEISHTQKATLVCLATGFYPDHVELSWWVNGKEVHSGVSTDPQPLKEQPALNDSRYCLSSRLRVSATFWQNPRNHFRCQVQFYGLSENDEWTQDRAKPVTQIVSAEAWGRADCGFTSESYQQGVLSATILYEILLGKATLYAVLVSALVLMAMVKRKDSRG

EC50 (nM) of CD69 upregulation, conventional CD4+ T cells + BLS-DRB1*04:01 cells, peptide titrated: 19.1 nM
B13: TCR-K DS (TCR)
TCR alpha: B12 TCR alpha with T165C
TCR beta: B12 TCR beta with S172C

EC50 (nM) of CD69 upregulation, conventional CD4+ T cells + BLS-DRB1*04:01 cells, peptide titrated: 244 nM
B14: TCR-M (TCR, V domains shown)
V domain 1: DQQVKQNSPSLSVQEGRISILNCDYTNSMFDYFLWYKKYPAEGPTFLISISSIKDKNEDGRFTVFLNKSAKHLSLHIVPSQPGDSAVYFCAASAKTSGSRLTFGEGTQLTVNP
V domain 2: NAGVTQTPKFRILKIGQSMTLQCTQDMNHNYMYWYRQDPGMGLKLIYYSVGAGITDKGEVPNGYNVSRSTTEDFPLRLELAAPSQTSVYFCASRGGIQETQYFGPGTRLLVLE

EC50 (nM) of CD69 upregulation, conventional CD4+ T cells + BLS-DRB1*04:01 cells, peptide titrated: 11.2 nM
B15: TCR-G (TCR)
TCR alpha: QKEVEQNSGPLSVPEGAIASLNCTYSDRGSQSFFWYRQYSGKSPELIMFIYSNGDKEDGRFTAQLNKASQYVSLLIRDSQPSDSATYLCAVIYSSASKIIFGSGTRLSIRPNIQNPDPAVYQLRDSKSSDKSVCLFTDFDSQTNVSQSKDSDVYITDKTVLDMRSMDFKSNSAVAWSNKSDFACANAFNNSIIPEDTFFPSPESSCDVKLVEKSFETDTNLNFQNLSVIGFRILLLKVAGFNLLMTLRLWSS
TCR beta: SQTIHQWPATLVQPVGSPLSLECTVEGTSNPNLYWYRQAAGRGLQLLFYSVGIGQISSEVPQNLSASRPQDRQFILSSKKLLLSDSGFYLCAWSVQRLGRGGETQYFGPGTRLLVLEDLKNVFPPEVAVFEPSEAEISHTQKATLVCLATGFYPDHVELSWWVNGKEVHSGVSTDPQPLKEQPALNDSRYCLSSRLRVSATFWQNPRNHFRCQVQFYGLSENDEWTQDRAKPVTQIVSAEAWGRADCGFTSESYQQGVLSATILYEILLGKATLYAVLVSALVLMAMVKRKDSRG

EC50 (nM) of CD69 upregulation, conventional CD4+ T cells + BLS-DRB1*04:01 cells, peptide titrated: 1.89 nM
B16: TCR-G DS (TCR)
TCR alpha: B15 TCR alpha with T159C
TCR beta: B15 TCR beta with S173C

EC50 (nM) of CD69 upregulation, conventional CD4+ T cells + BLS-DRB1*04:01 cells, peptide titrated: 6.34 nM
B17: TCR-O (TCR, V domains shown)
V domain 1: KQEVTQIPAALSVPEGENLVLNCSFTDSAIYNLQWFRQDPGKGLTSLLLIQSSQREQTSGRLNASLDKSSGRSTLYIAASQPGDSATYLCAVTGMDSSYKLIFGSGTRLLVRP
V domain 2: DAEITQSPRHKITETGRQVTLACHQTWNHNNMFWYRQDLGHGLRLIHYSYGVHDTNKGEVSDGYSVSRSNTEDLPLTLESAASSQTSVYFCASSEGGSWGYTFGSGTRLTVVE

EC50 (nM) of CD69 upregulation, conventional CD4+ T cells + BLS-DRB1*04:01 cells, peptide titrated: 498 nM
B18: TCR-L (TCR, V domains shown)
V domain 1: RKEVEQDPGPFNVPEGATVAFNCTYSNSASQSFFWYRQDCRKEPKLLMSVYSSGNEDGRFTAQLNRASQYISLLIRDSKLSDSATYLCVVLRNSGNTPLVFGKGTRLSVIA
V domain 2: DAGITQSPRHKVTETGTPVTLRCHQTENHRYMYWYRQDPGHGLRLIHYSYGVKDTDKGEVSDGYSVSRSKTEDFLLTLESATSSQTSVYFCAIKPGQGNRGEQFFGPGTRLTVLE

From US20250295772A1 (ABATA THERAPEUTICS, published 2025)
